Bounds are passed on as bounds.

The text below walks through data of article PMC6212398, “Competing protein-protein interactions regulate binding of Hsp27 to its client protein tau” (Nature Communications, 2018).

One experiment has as its target Hsp27 ΔNTD GPG (human) (UniProt P04792). Briefly: not stated; oligomeric state of Hsp27 GPG, ΔNTD and ΔNTD GPG (Supplementary Figure 8B, 8C); method not given.
Experiment [1] has as its target Hsp27 alpha-crystallin domain (ACD, residues Q80–S176) (human) (UniProt P04792). Briefly: ELISA; competitive ELISA of K18 tau on Hsp27 ACD (Supplementary Figure 3A); format not told.
Experiment [2] has the same target. Briefly: ITC; K18 tau with Hsp27 ACD (Supplementary Figure 3B); limited by solubility. Background: ITC needs no label: the signal is the heat of the interaction.

Sequence of Hsp27 alpha-crystallin domain (ACD, residues Q80–S176) (human) (P04792 80-176): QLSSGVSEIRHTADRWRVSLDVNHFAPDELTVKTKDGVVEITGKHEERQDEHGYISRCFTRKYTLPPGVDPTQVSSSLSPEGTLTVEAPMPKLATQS

With “Hsp27 ΔNTD GPG (from UniProt P04792 80-205) (domain or fragment)”, in the experiment with Hsp27 ΔNTD GPG (human), the stoichiometry N (commonly a count of units in the complex or per binding partner) stood at 2.
On to “K18 tau (the four microtubule-binding repeats) (domain or fragment)”, for which the IC50 (in general, the concentration needed to halve the response being measured) in experiment [1] was > 100 µM. Besides, the Kd – broadly, the concentration at which binding is half-saturated – in experiment [2] was > 100 µM.
